Results reported in IntAct's records for PubMed 20700104.

B1: Caspase Dronc (Drosophila melanogaster (Fruit fly)), Q9XYF4 (parent)
chain: MQPPELEIGMPKRHREHIRKNLNILVEWTNYERLAMECVQQGILTVQMLRNTQDLNGKPFNMDEKDVRVEQHRRLLLKITQRGPTAYNLLINALRNINCLDAAVLLESVDESDSRPPFISLNERRTSRKSADIVDTPSPEASEGPCVSKLRNEPLGALTPYVGVVDGPEVKKSKKIHGGDSAILGTYKMQSRFNRGVLLMVNIMDYPDQNRRRIGAEKDSKSLIHLFQELNFTIFPYGNVNQDQFFKLLTMVTSSSYVQNTECFVMVLMTHGNSVEGKEKVEFCDGSVVDMQKIKDHFQTAKCPYLVNKPKVLMFPFCRGDEYDLGHPKNQGNLMEPVYTAQEEKWPDTQTEGIPSPSTNVPSLADTLVCYANTPGYVTHRDLDTGSWYIQKFCQVMADHAHDTDLEDILKKTSEAVGNKRTKKGSMQTGAYDNLGFNKKLYFNPGFFNE
partner: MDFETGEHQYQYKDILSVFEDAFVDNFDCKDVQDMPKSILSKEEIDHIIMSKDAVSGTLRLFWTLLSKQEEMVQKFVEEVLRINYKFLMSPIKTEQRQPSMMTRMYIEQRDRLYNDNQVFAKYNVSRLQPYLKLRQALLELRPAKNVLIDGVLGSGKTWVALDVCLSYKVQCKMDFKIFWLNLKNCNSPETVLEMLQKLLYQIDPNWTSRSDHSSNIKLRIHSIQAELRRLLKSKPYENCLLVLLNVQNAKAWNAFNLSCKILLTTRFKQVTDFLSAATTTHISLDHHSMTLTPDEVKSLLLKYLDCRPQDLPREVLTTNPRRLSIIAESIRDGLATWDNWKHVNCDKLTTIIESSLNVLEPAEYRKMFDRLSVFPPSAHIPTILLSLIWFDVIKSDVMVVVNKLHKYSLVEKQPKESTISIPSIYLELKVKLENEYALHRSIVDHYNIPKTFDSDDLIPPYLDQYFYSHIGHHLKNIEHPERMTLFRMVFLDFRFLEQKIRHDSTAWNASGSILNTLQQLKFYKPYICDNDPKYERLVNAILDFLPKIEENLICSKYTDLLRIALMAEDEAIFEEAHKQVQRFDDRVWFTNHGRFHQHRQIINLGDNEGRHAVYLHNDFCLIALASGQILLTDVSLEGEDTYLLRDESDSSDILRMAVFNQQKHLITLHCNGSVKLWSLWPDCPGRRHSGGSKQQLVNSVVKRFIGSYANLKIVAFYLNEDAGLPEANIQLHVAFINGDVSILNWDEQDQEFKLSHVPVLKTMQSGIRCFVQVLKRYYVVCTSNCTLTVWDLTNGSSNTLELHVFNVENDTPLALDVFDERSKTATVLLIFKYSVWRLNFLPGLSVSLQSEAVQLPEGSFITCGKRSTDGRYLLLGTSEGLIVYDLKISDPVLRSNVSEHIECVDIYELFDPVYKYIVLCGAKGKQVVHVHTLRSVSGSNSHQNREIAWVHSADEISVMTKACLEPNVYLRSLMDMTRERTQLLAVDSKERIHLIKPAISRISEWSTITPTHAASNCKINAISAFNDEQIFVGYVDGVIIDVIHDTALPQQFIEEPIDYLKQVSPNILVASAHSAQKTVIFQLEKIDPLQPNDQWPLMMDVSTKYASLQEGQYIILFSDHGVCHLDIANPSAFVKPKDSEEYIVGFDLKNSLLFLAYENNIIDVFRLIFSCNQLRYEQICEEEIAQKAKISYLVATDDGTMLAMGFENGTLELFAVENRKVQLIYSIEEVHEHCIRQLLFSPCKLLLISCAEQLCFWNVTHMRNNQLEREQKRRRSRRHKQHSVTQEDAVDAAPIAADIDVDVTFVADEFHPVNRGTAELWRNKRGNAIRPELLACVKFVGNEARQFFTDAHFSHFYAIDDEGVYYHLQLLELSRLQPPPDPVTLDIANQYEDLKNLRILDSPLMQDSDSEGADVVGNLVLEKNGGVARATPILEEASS
B2: Caspase Dronc (Drosophila melanogaster (Fruit fly)), Q9XYF4 (parent)
chain: B1 chain

Variants of: B1
Settings: with apaf_drome Dark

| Variant | effect of a mutation on the interaction |
| --- | --- |
| MQPPELEIGMPKRHREHIRKNLNILVEWTNYERLAMECVQQGILTVQMLRNTQDLNGKPFNMDEKDVRVEQHRRLLLKITQRGPTAYNLLINALRNINCLDAAVLLESVDESDSRPPFISLNERRTSRKSADIVDTPSPEASEGPCVSKLRNEPLGALTPYVGVVDGPEVKKSKKIHGGDSAILGTYKMQSRFNRGVLLMVNIMDYPDQNRRRIGAEKDSKSLIHLFQELNFTIFPYGNVNQDQFFKLLTMVTSSSYVQNTECFVMVLMTHGNSVEGKEKVEFCDGSVVDMQKIKDHFQTAKCPYLVNKPKVLMFPFARGDEYDLGHPKNQGNLMEPVYTAQEEKWPDTQTEGIPSPSTNVPSLADTLVCYANTPGYVTHRDLDTGSWYIQKFCQVMADHAHDTDLEDILKKTSEAVGNKRTKKGSMQTGAYDNLGFNKKLYFNPGFFNE [C318A] | increasing interaction |
| MQPPELEIGMPKRHREHIRKNLNILVEWTNYERLAMECVQQGILTVQMLRNTQDLNGKPFNMDEKDVRVEQHRRLLLKITQRGPTAYNLLINALRNINCLDAAVLLESVDESDSRPPFISLNERRTSRKAADIVDTPSPEASEGPCVSKLRNEPLGALTPYVGVVDGPEVKKSKKIHGGDSAILGTYKMQSRFNRGVLLMVNIMDYPDQNRRRIGAEKDSKSLIHLFQELNFTIFPYGNVNQDQFFKLLTMVTSSSYVQNTECFVMVLMTHGNSVEGKEKVEFCDGSVVDMQKIKDHFQTAKCPYLVNKPKVLMFPFCRGDEYDLGHPKNQGNLMEPVYTAQEEKWPDTQTEGIPSPSTNVPSLADTLVCYANTPGYVTHRDLDTGSWYIQKFCQVMADHAHDTDLEDILKKTSEAVGNKRTKKGSMQTGAYDNLGFNKKLYFNPGFFNE [S130A] | increasing interaction |

Variants of: B2
Settings: with kcc2a_drome CaMKII

| Variant | effect of a mutation on the interaction |
| --- | --- |
| MQPPELEIGMPKRHREHIRKNLNILVEWTNYERLAMECVQQGILTVQMLRNTQDLNGKPFNMDEKDVRVEQHRRLLLKITQRGPTAYNLLINALRNINCLDAAVLLESVDESDSRPPFISLNERRTSRKAADIVDTPSPEASEGPCVSKLRNEPLGALTPYVGVVDGPEVKKSKKIHGGDSAILGTYKMQSRFNRGVLLMVNIMDYPDQNRRRIGAEKDSKSLIHLFQELNFTIFPYGNVNQDQFFKLLTMVTSSSYVQNTECFVMVLMTHGNSVEGKEKVEFCDGSVVDMQKIKDHFQTAKCPYLVNKPKVLMFPFCRGDEYDLGHPKNQGNLMEPVYTAQEEKWPDTQTEGIPSPSTNVPSLADTLVCYANTPGYVTHRDLDTGSWYIQKFCQVMADHAHDTDLEDILKKTSEAVGNKRTKKGSMQTGAYDNLGFNKKLYFNPGFFNE [S130A] | disrupting interaction |
